Experimental data reported in publication PMC8918354.

Molecular target: iron superoxide dismutase SodB from Acinetobacter sp. Ver3 (Acinetobacter sp. Ver3)
Assay: crystal structure; space group C222(1), one molecule per asymmetric unit, dimer formed by crystallographic symmetry; 1.34 Å; crystals grown at 20 °C from 10 mg/ml protein with 1 mM FMN in the mother liquor

stoichiometry N: 2
Substance: iron superoxide dismutase SodB from Acinetobacter sp. Ver3 (enzyme)
